Measured values from the supplement of paper PMC10567573.

B1: MTMR15 (parent)
chain: FSPDFTLRNTLKSTSEDSLVKQEC
B2: RIPK4 (parent)
chain: RERMELLEEAKKMEMAKFRYILPV

Variants of: B1
Test: protein stability index of a GFP-peptide fusion (GPS, HEK-293T) (PSI 1-6); higher = more stable
Settings: c terminus: a fixed tail appended
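Also: lentivirally expressed fusions sorted by FACS into six bins by GFP to DsRed ratio, PSI derived from sequencing read proportions per bin multiplied by bin number.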

Protein stability index, by site and new letter:
F1: A 3.9; H 4.96; M 4.87; G 5.09; L 5.21; E 5.32; P 5.1; Q 4.96; N 5.19; K 5; I 4.71; D 5.25; C 4.17

Variants of: B2
Test: as above
Settings: c terminus: a fixed tail appended

Protein stability index of substitutions, site by site:
M4: H 3.21; K 3.74; W 2.81; I 3.08; V 2.88; P 3.8; D 4.17; C 3.69; E 3.67; Y 2.82; S 3.59; Q 3.76; G 5.3
E8: I 2.11; L 2.11; K 3.42; D 2.86; W 3.05; Y 2.62; C 3.01; Q 2.03; V 1.69; P 3.14; N 2.04; S 3.06; G 2.27; T 3.16
K17: F 1.26; S 2.99; D 2.84; N 1.01; C 2.01; V 2.75; H 2.68; M 3.5; L 2.04; I 2.72; Y 2.8; A 1.87
F18: P 3.86; I 2.79; E 3.55; A 3.16; M 2.75; C 2.75; N 4.03; K 4.06; T 3.81; G 3.69; Q 3.61
L22: A 4.27; W 2.53; M 3.57; R 4.07; P 4.95; S 3.28; N 3.07; Q 3.69
K12: W 2.65; I 2.37; L 2.21; N 3.23; D 3.3; Q 3.41; P 3.5; H 3.36; Y 2.42; E 3.46; V 2.82; G 2.36; M 2.78; F 2.5; T 2.9
L7: M 3.48; P 4.01; Q 3.87; V 2.78; D 3.43; A 3.35; F 3.4; K 3.99; N 3.54; T 4.19; I 3.42; E 3.74; Y 2.52; W 2.43; S 3.66
E2: W 1.47; N 3.59; D 3.21; P 3.75; C 1.34; G 2.57; H 2.75; V 2.81; Q 2.31; M 2.37; I 1.93; S 2.77; L 2.57; A 2.42; Y 2.74; F 2.27
P23: N 1.63; G 1.95; H 2.9; M 2; K 1.83; V 2.29; D 2.03; C 3.02; E 2.7
E14: Q 3.12; V 1.71; F 1.86; R 2.06; C 3.63; G 2.44; K 2.21; D 3.8; I 2.16; T 2.65; Y 2.03; L 2.44; M 2.89; S 2.86; W 2.92; N 2.79
R3: H 3.89; I 2.39; A 3.48; V 2.42; C 3.26; S 3.85; L 2.3; D 3.63; T 3.68; W 1.73; F 2.58; Q 4.19; P 3.84; G 2.58; E 4.38; N 3.18; M 2.7
K11: A 3.07; Y 1.08; R 2.81; I 2.39; W 2.51; G 3.04; H 3.05; L 4.66
